Laboratory results reported in the nanobody polyreactivity screen of Harvey et al. (2022).

Test: yeast display, Sf9 membrane polyspecificity reagent, FACS + sequencing; frameworks hold sequencing errors
Summary of the method: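 Nanobodies came from a synthetic yeast display library in Saccharomyces cerevisiae BJ5465, induced with galactose for 36–48 hours and stained for 1 hour at 4 °C with 10% biotinylated, detergent-solubilized Sf9 membrane reagent. Cells were enriched on streptavidin microbeads and then FACS-sorted, with low and high (top ~1%) gates set on anti-HA fluorescence for expression and streptavidin fluorescence for reagent binding. Each polyreactivity label reflects the gate a clone came from. Genes were amplified by colony PCR, sequenced by MiSeq 2 × 250 and filtered by CDR length.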

For “QVQLVESGGGLVQAGGSLRLSCAASGRIFTRYAMGWYRQAPGKERELVSAISSGGSTYYADSVKGRFTISRDNAKNTVYLQMNSLKPEDTAVYYCAAKTRPQRTYSTRQQMNYWGQGTQVTVSS”, the “polyreactivity (PSR sort gate)” value was “high polyreactivity”.
In the case of “QVQLVESGGGLVHAGGILRLSCAASGRIFDYNVMGWYRQAPGKERELVADINGSGGGTNYADSVKGRFTISRDNAKNTVYLQMNSLKPEDTAVYYCAAEWYSYGARSSYGGSRNDYWGHGTQVTVSS”, the “polyreactivity (PSR sort gate)” value is reported as “low polyreactivity”.
In the case of “QVQLVESGGGLVQAGGSLRLSCAASGGTFYAYAMGWYRQAPGKERELVAAISRSGSTYYADSVKGRFTISRDNAKNTVYLQMNSLKPEDTAVYYCAARRARRDPVGYVYAKYGYWGQGTQVTVSS”, the “polyreactivity (PSR sort gate)” value is reported as “high polyreactivity”.
In the case of “QVQLVESGGGLVQAGGSLRLSCAASGFISHYYAMGWYRQAPGKERELVAAIRISGDRTYYADSVKGRFTISRDNAKNTVYLQMNSLKPEDTAVYYCNAVWEYYGKSDYWGQGTQVTVSS”, the “polyreactivity (PSR sort gate)” value is reported as “low polyreactivity”.
With “QVQLVESGGGLVQAGGSLPLSCAASGLIINYYVMGWYRQAPGKERELVAANTISGGRSYYADSVKVRFTISRDNAKNTVYLQMKCLNPEDTAVYYCARRFGPYRKGYQSYGIYDYWGQGTHVTVSS” the “polyreactivity (PSR sort gate)” value was “high polyreactivity”.
For “QVQLVESGGGLVPAGGSLRLSCAASGSTFCPYAMGWYRQAPGKERELVADITSSGGSTYYADSVKGRFTISRDNAKNTVYLQMNSLKPEDTAVYYCAADWSNLGAYDYWGQRTQVTVSS”, the “polyreactivity (PSR sort gate)” value was “low polyreactivity”.
In the case of “QVQLVESGGGLVQAGGSLRLSCAASGRTFRYNAMGWYRQAPGKERELVAGIRWSGDRTYYADSVKGRFTISRDNAKNTVYLQMNSLKPEDTAVYYCNKVYHPGYGVRATYDYWGQGTQVTVSS”, the “polyreactivity (PSR sort gate)” value is reported as “high polyreactivity”.
For “QVQLVESGGGLVQAGGSLRLSCAASGSTFGPYAMGWYRQAHGKVRELVAAITESGDSTYYADSVKGRFTISRDNAKNTVYLQMNSLKPEDTAVYYCAAEFYGDKMDYWGQGTQVTVSS”, the “polyreactivity (PSR sort gate)” value was “low polyreactivity”.
In the case of “QVQLVESGGGLVQAGGSLRLSCAASGITFVKNVMGWYRQAPGKERELVAAISTIGARTYYADSVKGRFTISRDNAKNTVYLQMNSLKPEDTAVYYCAAENYPRRPRYDYWGQGTQVTVSS”, the “polyreactivity (PSR sort gate)” value is reported as “high polyreactivity”.
In the case of “QVQLVESGGGLVQAGGSPRLSCAASGRIFGVNAMGWYRQAPGKERELVAAISVSGDSTYYADSVKGRFTISRDNAKNTVYLQMNSLKPEDTAVYYCYAGYTFVPADLTDEYYWGQGTQVTVSS”, the “polyreactivity (PSR sort gate)” value is reported as “low polyreactivity”.
In the case of “QVQLVESGGGLLQAGGSLRLSCAASGRTFYQYAMGWYRKAPGKDRELVAAITTSGRSTYYADSVKGRITISRDNAKNTVYLQMNRLKPEDTAVYYCNKDLSSTIFDYWGQGTQVTVSS”, the “polyreactivity (PSR sort gate)” value is reported as “low polyreactivity”.
For “QVQLVESGGGLVQAGGSLRLSCAASGFIFVGNAMGWYRQAPGKERELVAAISSGTSTNYADSVKGRFTISRDNAKNTVYLQMNSLKPEDTAVYYCNAEVPATNEYTKRMDYWGQGTQVTVSS”, the “polyreactivity (PSR sort gate)” value was “low polyreactivity”.
In the case of “QVQLVESGGGLVQAGGSLRLSCAASGSTFSTYAMGWYRQAPGKERELVAAISRTGGSTYYADSVKGRFTISRDNAKNTVYLQMNSLKPEDTAVYYCATGDSGGYDYWGQGTQVTVSS”, the “polyreactivity (PSR sort gate)” value is reported as “low polyreactivity”.
In the case of “QVQLVESGGGLVQAGGSLGLSCAASGSIFGYYALGWYRPAPGKERELVAAISWSDGSTYYADSVKGRFTISRDNAKNTVYLQMNSLKPEDTAVYDCAARFTPYITSADGHYDYWGQGTQVTVSS”, the “polyreactivity (PSR sort gate)” value is reported as “low polyreactivity”.
For “QVQIVESGGGLVQAGGSLRISCAASGRTFSWNPMGWYRQAPGKERELVAGITGRGRSTYYADSVKGRFTISRDNAKLTVYLQMNSLTPEDTAVYYCAADSYRSSSPYGYWGQGTQVTVSS”, the “polyreactivity (PSR sort gate)” value was “high polyreactivity”.
For “QVQLVESGGGLVQAGGSLRLSCAASGSTLYSYAMGWSRQAPGKEREFVAAITSDDGSTYYADSVKGRFTISRDNAKNTVYLQMNSLKPEDTAVYYCATAGSVEYNYWGQGTQVTVSS”, the “polyreactivity (PSR sort gate)” value was “low polyreactivity”.
In the case of “QVQLVESGGGLVQAGGSLRLSCAASGRIFGTNAMGWYRQAPRKERELVATITRGGGNTYYADSVKGRFTISRDNAKNTVYLQLNSLKPEDTAVYYCAAYDSVQKYWILGFDYWGQGTQVTVSS”, the “polyreactivity (PSR sort gate)” value is reported as “low polyreactivity”.
With “QVQLVESGGGLVQAGGSLRLSCAASGFTFNDYAMGWYRQAPGKEWELVAAIDWSGGRTYYADSVKGRFTISRDNAKNTVYLQMNSLKAEDTAVYYFAAVLYSRLYWYRLDYWGQGTQVTVSS” the “polyreactivity (PSR sort gate)” value was “low polyreactivity”.
For “QVQLVESGGGLVQAGGSLRLSCAASGRIFNIYAMGWYRQAPGKERELVAAIRGRGGSTYYADSVKGRFTISRDNAKNTVYLQMNSLKPEDTAVYYCAADSGPFYSKTQTRYGYWGQGTQVTVSS”, the “polyreactivity (PSR sort gate)” value was “high polyreactivity”.
For “QVQLVESGGGLVQAGGSLRLSCAASGSIFYAYAMGWYRQAPGKERELVAAIRSSDSRTYYADSVKGRFTISRDNAKNTVYLQMNSLKPEDTAVYYCAADGSRKVKFDYWGQGTQVTVSS”, the “polyreactivity (PSR sort gate)” value was “high polyreactivity”.
In the case of “QVQLVESGGGLVQAGGSLRLICAASGRTYLWYTMGWYRQAPGKEREFVAAIWSGDSTYYADSVKGRFTISRDNAKNTVYLQMNSLKPEDTAVYYCAARRFRGSYYWGQGTQVTVSS”, the “polyreactivity (PSR sort gate)” value is reported as “high polyreactivity”.
In the case of “QVQLVESGGGLVQAGGSLRLSCAASGFIFVHNAMGWYRQAPGKERELVAAITSRGRTYYADSVKGRFTISRDNAKNTVYLQMNSLKPEDTAVYYCNAYWRGEYRYDSWGQGTQVTVSS”, the “polyreactivity (PSR sort gate)” value is reported as “high polyreactivity”.
With “QVQLVESGGGLVQAGGSLRLSCAASGFTFYLNAKGWYRQAPGKERELVAAITGSGGSTYYADSVKGRFTISRDNAKNTVYLQMNSLKPEDTAVYYCAADLYFYVISSGYGFYYWGQGTQVTVSS” the “polyreactivity (PSR sort gate)” value was “low polyreactivity”.
For “QVQLVESVGGLVQAGGILRLSCAASGSTFLDNAMGLYRQAPGKERELVAAITQSGSSTYYADSVKGRFTISRDNAKNTVYLQMNSLKPEDTAVYYCAADVPIISFDYWGQGTQVTVSS”, the “polyreactivity (PSR sort gate)” value was “low polyreactivity”.
With “QVQLVESGGGLVQAGGSLRLSCAASGSTFYKNAMGWYRQAPGKERELVARISGRGGSTYYADSVKGRFTISRDNAKNTVYLQMNSLKPEDTAVYYCNALYRVFVGTYDYWGQGTQVTVSS” the “polyreactivity (PSR sort gate)” value was “high polyreactivity”.
For “QVQLVESGGGLVQAGGSLRLSCAASGNTFVSNARGWYSQAPGKEREWVAAIDSGGSTNYADSVKGRFTISRDNAKNTDYLQMNSLKPEDTAVYYCNRTSVYYYYWGQGTQVTVSS”, the “polyreactivity (PSR sort gate)” value was “low polyreactivity”.
In the case of “QVQLVESGGGLVQAGGSLRLSCAASGSTYFRNAMGWYRQAPGKERELVADISASGGSTYYADSVKGRFTISRDNAKNTVYLQMNSLKPEDTAVYYCNALYIYFYNYLTIVYWGQGTQVTVSS”, the “polyreactivity (PSR sort gate)” value is reported as “low polyreactivity”.
In the case of “QVQLVESGVGLVQAGGSLRLSCAASGRTFAQYAMGCYRQAPGKERELVAVISRCTGRTYYADSVKGRFTISRDNAKNTVYLQMNSLKPEDTALYYCNTSPKLTYALLYVYWGQGTQVNVSS”, the “polyreactivity (PSR sort gate)” value is reported as “high polyreactivity”.
In the case of “QVQLVESGGGLVQAGGSLRLSCAASGFTFVINDMGWYRQAPVKERELVADITSGGDTYYADSVKGRFTISRVNAKNTVYLQMYRLKPEDTAVYYCAADIYPDWIYLLYGYWGQGTQVNVSS”, the “polyreactivity (PSR sort gate)” value is reported as “low polyreactivity”.
With “PVQLQESGGGLVQAGGSLRLSCAASGNIFDADIMGWYRQAPGKESELVACIADGGSTNYAESVKGRFTISRDNAKNTVYLQMNRLKPEDTAVYYCAAIAYPDIPTCFDYDSDYFFRGQGTQVTVSS” the “polyreactivity (PSR sort gate)” value was “low polyreactivity”.
With “QVQLVESGGGLVQAGGSLRLICAASGSTFQLYAMGWYRQAPGKERDLFAAISGIGDSTYYADSVKGRFTISRDNAKITVYLQMNSLKPEDTAVYYCAREFSDGLSGKFDYWGQRTQVTVSS” the “polyreactivity (PSR sort gate)” value was “low polyreactivity”.
In the case of “QVQLVESGGGLVQAGGSLRLSCAASGSIFRPYAMGRYRQAPGKERELVAAISWRSGRTYYADSVKGRFTISRDNAKNTVYLQMNSLKPEDTAVYYCAADLASYAYRYDYWGQGTQVTVSS”, the “polyreactivity (PSR sort gate)” value is reported as “high polyreactivity”.
In the case of “QVQLVESGGGLVQAGGSLRLSSDASGFIIANNALGWYRQAPVKERELVAAISRSGGRTYYADSVKGRFTISRDNGKKTVYLQMNSLKTEDTAVYYCVADRTDTSNYWGQGTQVTVSS”, the “polyreactivity (PSR sort gate)” value is reported as “high polyreactivity”.
In the case of “QVQLVESGGGLVQAGGSLRLSCAASGFTFVRYTMGWYRQSPGKEREMVAAINRSGGNTYYADSVKGRFTISRDNAKNTVYLQMNSLKPEDTAVYYCAAGYYVQVSLKDYYWGQGTQVTVSS”, the “polyreactivity (PSR sort gate)” value is reported as “high polyreactivity”.
With “QVQLVESGGGLVQAGGSLRLSCAASGRILLTYAMGWYRQAPGKERELVAAISSDSRTYYADSVKGRFTISRDNAKNTVYLQMNSLIPEDTAVYYCVRRRYKYDYWGQGTQVTVSS” the “polyreactivity (PSR sort gate)” value was “low polyreactivity”.
For “QVQLVESGGGLVQAGGSLRLSCAASGSTFISYAMGWYRQAPGKEREMVAAISWDGGSTYYADSVKGRFTISRDNAKNTVYLQMNSLKPEDTAVYYCNAEYDGAAGRYEYWGPGTQVTVSS”, the “polyreactivity (PSR sort gate)” value was “low polyreactivity”.
In the case of “QVQLVESGGGLVQAGGSLRLSCAASGLTFSRNAMGGYRQAPGKERELVAGISVSGSITFYADSVKGRFTISRDNAKNTVYLQMNSLKPEDTAVYYCAARYRYRYTPSVTGYDYWGQGTQVTVSS”, the “polyreactivity (PSR sort gate)” value is reported as “high polyreactivity”.
In the case of “QVQLVESGGGLVQAGGRLRLSCAASGRIFLFYDMGWYRQAPGKERELVATISFRRGSTYYADSVKGRFTISRDNAKNTVYLQMNSLKPEDTAVYYCAKQNKRGYSTSAYYYWGQGTQVTVSS”, the “polyreactivity (PSR sort gate)” value is reported as “low polyreactivity”.
With “QVQLVESGGGLVQAGGSLRLSCAASGRIFGAYTMGWYRQAPGKEREFVAAITQSGGSTYYADSVKGRFTISRDNAKNTVYLQMNSLKPEDTAVYYCAATRYVLVGWRYAVWYDYWGQGTQVTVSS” the “polyreactivity (PSR sort gate)” value was “high polyreactivity”.
With “QVQLVESGGGLVQAGGSLRLSCAASGRTFTTYAMGWYRQSPGKERELVAAISGSGGSTYYADSVKGRFTISRDNAKNTVYLQMNSLKPEDTAVYYCATAYYYHGGYYYPYDDYWGQGTQVTVSS” the “polyreactivity (PSR sort gate)” value was “low polyreactivity”.
In the case of “QVQLVESGGGLVQAGGSLRLSCAASGSIFEVYAMGWYRQAPGKERELVAAINYTGGSTYYADSVKGRFTISRDNAKNTVYLQMNSLKPEDTAVYYCAVPRGVASLQKVEFGYWGQGTQVTVSS”, the “polyreactivity (PSR sort gate)” value is reported as “low polyreactivity”.
For “QVQLVESGGGLVQAGGSLRLSCAASGSNFGIYAMGWYRQAPGKERELVAAISSRGSTYYADSVKGRFTISRDNAKNTVYLQMNSLKPEDTAVYYCAAGYAWYNYWGQGTQVTVSS”, the “polyreactivity (PSR sort gate)” value was “high polyreactivity”.
With “QVQLVESGGALVQAGGSLRLSCAASGRIFASNGMGWYRQAPGKEREFVAAINRSGGSTYYADSVKGRFTISRDNAKNTVYLQMNSLKPEDTAVYYCNKDYLYSYLWGWKVYSYDYWGQGTQVTVSS” the “polyreactivity (PSR sort gate)” value was “low polyreactivity”.
